Source: patent US10309966B2, “Personalized therapy of inflammation-associated cancer using methods of assessing the susceptibility of a subject to the treatment with EGFR inhibitors/antagonists” (Medizinische Universität Wien, priority 2014, dated 2019)

B1: IL-6: recombinant mouse IL-6 administered by oral gavage (protein, UniProt P08505 25-211, looked up)
Interleukin-6: FPTSQVRRGDFTEDTTPNRPVYTTSQVGGLITHVLWEIVEMRKELCNGNSDCMNNDDALAENNLKLPEIQRNDGCYQTGYNQEICLLKISSGLLEYHSYLEYMKNNLKDNKKDKARVLQRDTETLIHIFNQEVKDLHKIVLPTPISNALLTDKLESQKEWLRTKTIQFILKSLEEFLKVTLRSTRQT
B2: gp130: glycoprotein-130, exogenously administered to inhibit IL-6 trans-signaling (protein, UniProt P40189 23-918, looked up)
Interleukin-6 receptor …: ELLDPCGYISPESPVVQLHSNFTAVCVLKEKCMDYFHVNANYIVWKTNHFTIPKEQYTIINRTASSVTFTDIASLNIQLTCNILTFGQLEQNVYGITIISGLPPEKPKNLSCIVNEGKKMRCEWDGGRETHLETNFTLKSEWATHKFADCKAKRDTPTSCTVDYSTVYFVNIEVWVEAENALGKVTSDHINFDPVYKVKPNPPHNLSVINSEELSSILKLTWTNPSIKSVIILKYNIQYRTKDASTWSQIPPEDTASTRSSFTVQDLKPFTEYVFRIRCMKEDGKGYWSDWSEEASGITYEDRPSKAPSFWYKIDPSHTQGYRTVQLVWKTLPPFEANGKILDYEVTLTRWKSHLQNYTVNATKLTVNLTNDRYLATLTVRNLVGKSDAAVLTIPACDFQATHPVMDLKAFPKDNMLWVEWTTPRESVKKYILEWCVLSDKAPCITDWQQEDGTVHRTYLRGNLAESKCYLITVTPVYADGPGSPESIKAYLKQAPPSKGPTVRTKKVGKNEAVLEWDQLPVDVQNGFIRNYTIFYRTIIGNETAVNVDSSHTEYTLSSLTSDTLYMVRMAAYTDEGGKDGPEFTFTTPKFAQGEIEAIVVPVCLAFLLTTLLGVLFCFNKRDLIKKHIWPNVPDPSKSHIAQWSPHTPPRHNFNSKDQMYSDGNFTDVSVVEIEANDKKPFPEDLKSLDLFKKEKINTEGHSSGIGGSSCMSSSRPSISSSDENESSQNTSSTVQYSTVVHSGYRHQVPSVQVFSRSESTQPLLDSEERPEDLQLVDHVDGGDGILPRQQYFKQNCSQHESSPDISHFERSKQVSSVNEEDFVRLKQQISDHISQSCGSGQMKMFQEVSAADAFGPGTEGQVERFETVGMEAATDEGMPKSYLPQTVRQGGYMPQ

Tests used:
DSS-induced colitis = test: Oral recombinant IL-6 during DSS-induced colitis in EGFR mutant mice; format: in vivo, mouse; conditions: for DSS-induced weight loss: IL-6 orally during DSS, FIG. 17B; for epithelial proliferation during colitis (BrdU): FIGS. 18A, 26A
Procedure: Colitis was induced by administering 2.5% dextran sulfate sodium salt (DSS) (MP Biomedicals, 0216011080) in autoclaved drinking water for 5 d followed by 5 d of normal water (Chalaris, A. et al., 2010). Colon tumors in mice were induced as previously described (Wirtz, S. et al., 2007; Tanaka, T. et al., 2003). Briefly, mice were injected i.p. with 7.5 mg/kg azoxymethane (AOM) (Sigma-Aldrich, A5486) followed by repeated administration of DSS. 300 U recombinant mouse IL-6 (ImmunoTools GmbH, Germany) was administered by oral gavage.
Mice were injected with 10 mg/kg BrdU 2.5 hrs prior to sacrifice. The colons were extracted, flushed with ice cold PBS to remove feces, fixed overnight at 4° C. in neutral buffered 4% formaldehyde as “Swiss Rolls”, which were further dehydrated, embedded in paraffin and sectioned. Sections were stained with Haematoxylin and Eosin (Sigma), Alcian blue, Giemsa and PAS. Colitis severity and tumor stage were scored and graded by pathologists in a blinded manner according to previously described criteria (Dube, P. E. et al., 2012; Musteanu, M. et al., 2010). For immunohistochemistry, sections were dewaxed, rehydrated and boiled in Citrate buffer pH 6.1 (S1699, Dakocytomation, Glostrup, Denmark) for antigen recovery. Endogenous peroxidase was quenched by incubation with 3% H2O2 in TBS, followed by blocking with 10% goat serum in 2% BSA in TBS—0.1% Tween. Sections were then incubated overnight with antibodies against β-catenin (Cell Signaling, Danvers, Mass.; 9582), cleaved caspase 3 (Cell Signaling; 9661), lysozyme (Dako; A0099), EGFR (sc-03, Santa Cruz Biotechnology, Santa Cruz, Calif.), pTyr705-STAT3 (9145, Cell Signaling), survivin (Cell Signaling; 2808) and synaptophysin (GTX100865, GeneTex Irvine, Calif.), respectively. All sections were further treated with SignalStain® Boost (Cell Signaling; 8114) to detect bound antibody and with liquid3-Amino-9-Ethylcarbazole Chromogen/Substrate (BP 1108, ID LABS™ ON, Canada) for peroxidase staining and counterstained with Haematoxylin (HHS32, Sigma-Aldrich). For BrdU staining, sections were treated with 2 N HCl after antigen recovery, blocked as described above and incubated with anti-BrdU antibody (347580, BD Biosciences) and further with secondary antibody (Invitrogen A-11018) and counterstained with DAPI.
Intestinal barrier permeability was assessed as previously described (Chalaris, A. et al., 2010). Briefly, mice were orally gavaged with 60 mg/kg FITC-Dextran (Sigma FD4), food and water were withdrawn 4 h prior to gavage. FITC levels were determined in the serum 4 h post gavage by absorption at 488 nm using standard dilutions of FITC-Dextran as reference.

IL-6 trans-signaling = conditions: exogenous administration, mouse model of CAC; cited from earlier work

Row | Molecule | DSS-induced weight loss (DSS-induced colitis; Egfr^wa2/wa2 mice) | epithelial proliferation during colitis (BrdU) (DSS-induced colitis; Egfr^wa2/wa2 mice) | apoptosis (cleaved Caspase 3) (DSS-induced colitis; Egfr^ΔIEC mice) | apoptosis (cleaved Caspase 3) (DSS-induced colitis; Egfr^ΔMYL and Egfr^wa2/wa2 mice, FIGS. 18B, 26B) | pY-STAT3 nuclear localization in crypts (DSS-induced colitis; Egfr^ΔMYL mice during DSS treatment, FIGS. 18C, 18D) | DSS-induced weight loss (DSS-induced colitis; Egfr^ΔMYL mice) | number of ulcers (DSS-induced colitis; Egfr^ΔMYL mice, FIG. 17D) | loss of epithelial barrier function (FITC-dextran in serum) (DSS-induced colitis; Egfr^ΔMYL mice, FIG. 17E) | epithelial proliferation during colitis (BrdU) (DSS-induced colitis; Egfr^ΔMYL mice) | colitis and tumor development (IL-6 trans-signaling)
1 | B1 | partially rescued | partially | decreased | not affected | fully restored | able to protect | decreased | protected | fully | 
2 | B2 |  |  |  |  |  |  |  |  |  | substantial decrease
